From patent US20060257938A1, “Method of screening for drugs that block ligand binding to a lipid binding protein” (priority 2005, published 2006)

B1: 51A1, 72A (protein, listed as Rattus norvegicus)
chain: AFDGTWKVDRNENYEKFMEKMGINVVKRKLGAHDNLKLTITQEGNKFTVKASSNFRNIDVVFELGVDFAYSAADGTELTGTWTMEGNKLVGKFKRVDNGKELIAVREISGNELIQTYTYEGVEAKRIFKKE
modifications: PEPTIDE (1)...(131) wild-type rat intestinal fatty acid binding protein
B2: 51I1, 72A (protein, listed as Rattus norvegicus)
chain: AFDGTWKVDRNENYEKFMEKMGINVVKRKLGAHDNLKLTITQEGNKFTVKISSNFRNIDVVFELGVDFAYSAADGTELTGTWTMEGNKLVGKFKRVDNGKELIAVREISGNELIQTYTYEGVEAKRIFKKE
modifications: PEPTIDE (1)...(131) wild-type rat intestinal fatty acid binding protein
B3: 51D1, 72A (protein, listed as Rattus norvegicus)
chain: AFDGTWKVDRNENYEKFMEKMGINVVKRKLGAHDNLKLTITQEGNKFTVKDSSNFRNIDVVFELGVDFAYSAADGTELTGTWTMEGNKLVGKFKRVDNGKELIAVREISGNELIQTYTYEGVEAKRIFKKE
modifications: PEPTIDE (1)...(131) wild-type rat intestinal fatty acid binding protein
B4: 51H1, 72A (protein, listed as Rattus norvegicus)
chain: AFDGTWKVDRNENYEKFMEKMGINVVKRKLGAHDNLKLTITQEGNKFTVKHSSNFRNIDVVFELGVDFAYSAADGTELTGTWTMEGNKLVGKFKRVDNGKELIAVREISGNELIQTYTYEGVEAKRIFKKE
modifications: PEPTIDE (1)...(131) wild-type rat intestinal fatty acid binding protein
B5: 51P3, 72A (protein, listed as Rattus norvegicus)
chain: AFDGTWKVDRNENYEKFMEKMGINVVKRKLGAHDNLKLTITQEGNKFTVKPSSNFRNIDVVFELGVDFAYSAADGTELTGTWTMEGNKLVGKFKRVDNGKELIAVREISGNELIQTYTYEGVEAKRIFKKE
modifications: PEPTIDE (1)...(131) wild-type rat intestinal fatty acid binding protein
B6: 51S1, 72A (protein, listed as Rattus norvegicus)
chain: AFDGTWKVDRNENYEKFMEKMGINVVKRKLGAHDNLKLTITQEGNKFTVKSSSNFRNIDVVFELGVDFAYSAADGTELTGTWTMEGNKLVGKFKRVDNGKELIAVREISGNELIQTYTYEGVEAKRIFKKE
modifications: PEPTIDE (1)...(131) wild-type rat intestinal fatty acid binding protein
B7: 51K1, 72A (protein, listed as Rattus norvegicus)
chain: AFDGTWKVDRNENYEKFMEKMGINVVKRKLGAHDNLKLTITQEGNKFTVKKSSNFRNIDVVFELGVDFAYSAADGTELTGTWTMEGNKLVGKFKRVDNGKELIAVREISGNELIQTYTYEGVEAKRIFKKE
modifications: PEPTIDE (1)...(131) wild-type rat intestinal fatty acid binding protein
B8: 51L3, 72A (protein, listed as Rattus norvegicus)
chain: AFDGTWKVDRNENYEKFMEKMGINVVKRKLGAHDNLKLTITQEGNKFTVKLSSNFRNIDVVFELGVDFAYSAADGTELTGTWTMEGNKLVGKFKRVDNGKELIAVREISGNELIQTYTYEGVEAKRIFKKE
modifications: PEPTIDE (1)...(131) wild-type rat intestinal fatty acid binding protein
B9: 51T3, 72A (protein, listed as Rattus norvegicus)
chain: AFDGTWKVDRNENYEKFMEKMGINVVKRKLGAHDNLKLTITQEGNKFTVKTSSNFRNIDVVFELGVDFAYSAADGTELTGTWTMEGNKLVGKFKRVDNGKELIAVREISGNELIQTYTYEGVEAKRIFKKE
modifications: PEPTIDE (1)...(131) wild-type rat intestinal fatty acid binding protein
B10: 51C3, 72A (protein, listed as Rattus norvegicus)
chain: AFDGTWKVDRNENYEKFMEKMGINVVKRKLGAHDNLKLTITQEGNKFTVKCSSNFRNIDVVFELGVDFAYSAADGTELTGTWTMEGNKLVGKFKRVDNGKELIAVREISGNELIQTYTYEGVEAKRIFKKE
modifications: PEPTIDE (1)...(131) wild-type rat intestinal fatty acid binding protein
B11: 51N1, 72A (protein, listed as Rattus norvegicus)
chain: AFDGTWKVDRNENYEKFMEKMGINVVKRKLGAHDNLKLTITQEGNKFTVKNSSNFRNIDVVFELGVDFAYSAADGTELTGTWTMEGNKLVGKFKRVDNGKELIAVREISGNELIQTYTYEGVEAKRIFKKE
modifications: PEPTIDE (1)...(131) wild-type rat intestinal fatty acid binding protein
B12: 51R1, 72A (protein, listed as Rattus norvegicus)
chain: AFDGTWKVDRNENYEKFMEKMGINVVKRKLGAHDNLKLTITQEGNKFTVKRSSNFRNIDVVFELGVDFAYSAADGTELTGTWTMEGNKLVGKFKRVDNGKELIAVREISGNELIQTYTYEGVEAKRIFKKE
modifications: PEPTIDE (1)...(131) wild-type rat intestinal fatty acid binding protein
B13: 51F1, 72A (protein, listed as Rattus norvegicus)
chain: AFDGTWKVDRNENYEKFMEKMGINVVKRKLGAHDNLKLTITQEGNKFTVKFSSNFRNIDVVFELGVDFAYSAADGTELTGTWTMEGNKLVGKFKRVDNGKELIAVREISGNELIQTYTYEGVEAKRIFKKE
modifications: PEPTIDE (1)...(131) wild-type rat intestinal fatty acid binding protein
B14: 51G1, 72A (protein, listed as Rattus norvegicus)
chain: AFDGTWKVDRNENYEKFMEKMGINVVKRKLGAHDNLKLTITQEGNKFTVKGSSNFRNIDVVFELGVDFAYSAADGTELTGTWTMEGNKLVGKFKRVDNGKELIAVREISGNELIQTYTYEGVEAKRIFKKE
modifications: PEPTIDE (1)...(131) wild-type rat intestinal fatty acid binding protein
B15: 51Q1, 72A (protein, listed as Rattus norvegicus)
chain: AFDGTWKVDRNENYEKFMEKMGINVVKRKLGAHDNLKLTITQEGNKFTVKQSSNFRNIDVVFELGVDFAYSAADGTELTGTWTMEGNKLVGKFKRVDNGKELIAVREISGNELIQTYTYEGVEAKRIFKKE
modifications: PEPTIDE (1)...(131) wild-type rat intestinal fatty acid binding protein

Columns and labels:
Type in all cases: binding
[1] = Probe fluorescence ratio response to linolenic acid relative to ADIFAB2; details: response relative to ADIFAB2
Outline: (§1)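 Fluorescently labeled rat intestinal FABP variants were read at two emission wavelengths, near the unbound maximum (about 420 to 480 nm) and the FFA-bound maximum (about 495 to 580 nm). R = Fλ1/Fλ2 after subtracting probe-free intensity; ΔR = R+agent − R0, normalized to ADIFAB2 (rI-FABP-L72A).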

[2] = Probe fluorescence ratio response to palmitic acid relative to ADIFAB2; details: response relative to ADIFAB2
Outline: as §1

[3] = Probe fluorescence ratio response to linoleic acid relative to ADIFAB2; details: response relative to ADIFAB2
Outline: as §1

[4] = Probe fluorescence ratio response to oleic acid relative to ADIFAB2; details: response relative to ADIFAB2
Outline: as §1

[5] = Probe fluorescence ratio response to arachidonic acid relative to ADIFAB2; details: Arachidonic acid; response relative to ADIFAB2
Outline: as §1

Molecule	DR/DR LNA [1]	DR/DR PA [2]	DR/DR LA [3]	DR/DR OA [4]	DR/DR AA [5]
B1	1.49	0.70	1.48	1.28	1.38
B2	1.62	0.72	1.55	1.41	1.50
B3	1.39	0.68	1.38	1.28	1.34
B4	1.58	0.81	1.64	0.58	1.52
B5	1.48	0.72	1.42	1.21	1.42
B6	1.66	0.80	1.78	1.61	1.64
B7	1.02	0.56	−0.01	1.01	1.00
B8	1.66	0.76	1.65	1.45	1.64
B9	1.60	0.71	1.65	1.44	1.60
B10	1.47	0.69	1.55	1.35	1.44
B11	1.39	0.73	1.46	1.26	1.38
B12	1.56	0.73	1.56	1.35	1.50
B13	1.60	0.76	1.70	1.47	1.64
B14	1.76	0.78	1.71	1.57	1.64
B15	1.65	0.73	1.63	1.43	1.56
